US8048999B2, “Nuclear reprogramming factor” (Kyoto University, priority 2005, dated 2011)

B1: SCF: cytokine permanently expressed by STO feeder cells transduced with pMX expression vector (protein, UniProt P20826 26-190, looked up)
Soluble KIT ligand: KEICGNPVTDNVKDITKLVANLPNDYMITLNYVAGMDVLPSHCWLRDMVIQLSLSLTTLLDKFSNISEGLSNYSIIDKLGKIVDDLVLCMEENAPKNIKESPKRPETRSFTPEEFFSIFNRSIDAFKDFMVASDTSDCVLSSTLGPEKDSRVSVTKPFMLPPVAA
B2: bFGF: cytokine permanently expressed by STO feeder cells transduced with pMX expression vector (protein, UniProt P15655 10-154, looked up)
Fibroblast growth factor 2: PALPEDGGAAFPPGHFKDPKRLYCKNGGFFLRIHPDGRVDGVREKSDPHVKLQLQAEERGVVSIKGVCANRYLAMKEDGRLLASKCVTEECFFFERLESNNYNTYRSRKYSSWYVALKRTGQYKLGSKTGPGQKAILFLPMSAKS

Assays:
[1] = test system: Nanog-EGFP-IRES-Puro mouse MEFs; experiment: iPS cell establishment with Nanog-GFP reporter, puromycin selection; assay type: cell-based; conditions: 4 factors; PD98059 final concentration 25 μM continuously added from the next day of transfection
Excerpt: Studies were made as to whether iPS cells could be established with a reporter other than Fbx15-βgeo. […] artificial chromosome (BAC) containing the Nanog gene in the center was isolated, and then the GFP gene and the puromycin resistance gene were knocked in by recombination in E. coli (FIG. 12A). Subsequently, the above modified BAC was introduced into ES cells to confirm that the cells became GFP-positive in an undifferentiated state specific manner (data not shown). Then, these ES cells were transplanted in mouse blastocysts to create transgenic mice via chimeric mice. In these mice, GFP-positive cells were specifically observed in inner cell masses of the blastocysts or gonads of embryos at 13.5 days after fertilization (FIG. 12B). The gonads were removed from the embryos at 13.5 days after fertilization (hybrid of DBA, 129, and C57BL/6 mice), and MEFs were isolated. The isolated MEFs were confirmed to be GFP-negative (FIG. 13) by flow cytometry. These MEFs were retrovirally transduced with the 4 factors and subjected to puromycin selection, and as a result, a plural number of resistant colonies were obtained. Only about 10 to 20% of the colonies were GFP-positive. When the GFP-positive colonies were passaged, they gave morphology (FIG. 14) and proliferation (FIG. 15) similar to those of ES cells. […]

[2] = test system: MEFs derived from the Fbx15^βgeo/βgeo mouse; experiment: Effect of cytokine-producing STO feeder cells on iPS cell establishment (G418 selection); assay type: cell-based; conditions: 3 factors other than c-Myc transduced
Excerpt: An effect of cytokine on iPS cell establishment was investigated. Expression vector (pMX retroviral vector) for basic fibroblast growth factor (bFGF) or stem cell factor (SCF) was transduced into feeder cells (STO cells) to establish cells permanently expressing the cytokines. […] As a result, the number of formed colonies increased 20 times or higher on the STO cells producing bFGF (FIG. 11) or SCF (data not shown), as compared with the culture on normal STO cells.

Molecule | percentage of GFP-positive colonies [1] [%] | colony formation with the 3 factors other than c-Myc on cytokine-producing STO cells [2]
COc1cccc(-c2cc(=O)c3ccccc3o2)c1N [PD98059] | 45 | 
B1 |  | colony formation was observed
B2 |  | colony formation was observed
